# Measurements taken from paper PMC3973317, “Solution structure and tandem DNA recognition of the C-terminal effector domain of PmrA from Klebsiella pneumoniae”.
# T1: PmrAC (C-terminal effector/DNA-binding domain of PmrA) (Klebsiella pneumoniae, UniProt W9BNR5 121-223)
# T1 sequence: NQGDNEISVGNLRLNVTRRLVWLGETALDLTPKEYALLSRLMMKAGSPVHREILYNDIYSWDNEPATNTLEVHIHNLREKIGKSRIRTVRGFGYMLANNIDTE
# B1: box1 (dsDNA)
# DNA 1: ATTTCTTAATATTATCCTAAGCAAG
# DNA 2: CTTGCTTAGGATAATATTAAGAAAT
# B2: box1b (dsDNA)
# DNA 1: ATTATCCTAAGCAAGG
# DNA 2: CCTTGCTTAGGATAAT
# B3: box2b (dsDNA)
# DNA 1: CGTTTAAGTCCG
# DNA 2: CGGACTTAAACG
# B4: box1a (dsDNA)
# DNA 1: AATTTCTTAATATTAT
# DNA 2: ATAATATTAAGAAATT
# B5: box1 dT-EDTA at THY4 (dsDNA)
# DNA 1: ATTTCTTAATATTATCCTAAGCAAG
# DNA 2: CTTGCTTAGGATAATATTAAGAAAT
# modifications: dT-EDTA at T4 of strand 1
# B6: box2 (dsDNA)
# DNA 1: TCATTTTAATTTCGTTTAAGTCCG
# DNA 2: CGGACTTAAACGAAATTAAAATGA
# B7: box1 dT-EDTA at THY28 (dsDNA)
# DNA 1: ATTTCTTAATATTATCCTAAGCAAG
# DNA 2: CTTGCTTAGGATAATATTAAGAAAT
# modifications: dT-EDTA at THY28 (strand 2, position 3)
# How the values were obtained:
# [1] = molecular target: T1, PmrAC (C-terminal effector/DNA-binding …); assay: fluorescence polarization; two-site fit, first site (half1); 20 mM sodium phosphate, 30 mM NaCl, pH 6.0; FP with 12 nM 6-FAM DNA (temperature not stated); ITC plus 0.5 mM EDTA at 25 C; NMR at 298 K; conditions: protein: recombinant; tags: N-terminal extra Met; chain copies: 2; label: 5' 6-FAM (fluorescence polarization); none (NMR); blunt
# [2] = molecular target: T1, PmrAC (C-terminal effector/DNA-binding …); assay: fluorescence polarization; 20 mM sodium phosphate, 30 mM NaCl, pH 6.0; FP with 12 nM 6-FAM DNA (temperature not stated); ITC plus 0.5 mM EDTA at 25 C; NMR at 298 K; conditions: protein: recombinant; tags: N-terminal extra Met; chain copies: 2; label: 5' 6-FAM (fluorescence polarization); none (NMR); blunt
# [3] = molecular target: T1, PmrAC (C-terminal effector/DNA-binding …); assay: NMR titration; range over residues; 20 mM sodium phosphate, 30 mM NaCl, pH 6.0; FP with 12 nM 6-FAM DNA (temperature not stated); ITC plus 0.5 mM EDTA at 25 C; NMR at 298 K; conditions: protein: recombinant; tags: N-terminal extra Met; chain copies: 2; blunt
# [4] = molecular target: T1, PmrAC (C-terminal effector/DNA-binding …); assay: ITC; 1:1 stoichiometry; 0.5 mM EDTA; 20 mM sodium phosphate, 30 mM NaCl, pH 6.0; FP with 12 nM 6-FAM DNA (temperature not stated); ITC plus 0.5 mM EDTA at 25 C; NMR at 298 K; conditions: protein: recombinant; tags: N-terminal extra Met; chain copies: 2; blunt
# [5] = molecular target: T1, PmrAC (C-terminal effector/DNA-binding …); assay: NMR PRE; Mn2+ or Ca2+; 1:1; label does not affect interaction; 20 mM sodium phosphate, 30 mM NaCl, pH 6.0; FP with 12 nM 6-FAM DNA (temperature not stated); ITC plus 0.5 mM EDTA at 25 C; NMR at 298 K; conditions: protein: recombinant; tags: N-terminal extra Met; chain copies: 2; label: EDTA spin label (Mn2+/Ca2+); blunt
# [6] = molecular target: T1, PmrAC (C-terminal effector/DNA-binding …); assay: ITC; 2:1 protein:DNA; one-site fit; 0.5 mM EDTA; 20 mM sodium phosphate, 30 mM NaCl, pH 6.0; FP with 12 nM 6-FAM DNA (temperature not stated); ITC plus 0.5 mM EDTA at 25 C; NMR at 298 K; conditions: protein: recombinant; tags: N-terminal extra Met; chain copies: 2; blunt
# [7] = molecular target: T1, PmrAC (C-terminal effector/DNA-binding …); assay: NMR PRE; Mn2+ or Ca2+; 2:1 protein:DNA; label does not affect interaction; 20 mM sodium phosphate, 30 mM NaCl, pH 6.0; FP with 12 nM 6-FAM DNA (temperature not stated); ITC plus 0.5 mM EDTA at 25 C; NMR at 298 K; conditions: protein: recombinant; tags: N-terminal extra Met; chain copies: 2; label: EDTA spin label (Mn2+/Ca2+); blunt
binder,measurement,setting,value
B1,Kd,[1],0.19 ± 0.01 µM
B2,Kd,[2],9.3 ± 1.5 µM
B3,Kd,[3],31.9 µM
same,Kd,[4],36.5 ± 9.4 µM
B4,Kd,[2],0.13 ± 0.01 µM
B5,binding result,[5],binds
B6,Kd,[6],0.97 ± 0.13 µM
B7,binding result,[7],binds
